Results from PMC13069688.

Tests used:
[1] = system: Q55N-LacI-Halo Q55N (Escherichia coli); assay: PBM real-time kinetics (kd/ka); settings: PBM: imaging buffer (Na+ + K+ about 30 mM; composition and pH not in the material), EMSA: 1 nM DNA, 0-500 nM LacI (monomer), 1x imaging buffer with 20, 100 or …
[2] = system: V52A-LacI-Halo V52A (Escherichia coli); assay: PBM real-time kinetics (kd/ka); settings: PBM: imaging buffer (Na+ + K+ about 30 mM; composition and pH not in the material), EMSA: 1 nM DNA, 0-500 nM LacI (monomer), 1x imaging buffer with 20, 100 or …
[3] = system: LacI-Halo WT (Escherichia coli); assay: PBM real-time kinetics (kd/ka); settings: PBM: imaging buffer (Na+ + K+ about 30 mM; composition and pH not in the material), EMSA: 1 nM DNA, 0-500 nM LacI (monomer), 1x imaging buffer with 20, 100 or …
[4] = system: Q55N-LacI-Halo Q55N (Escherichia coli); assay: EMSA; settings: NaCl titration; Methods list 20, 100, 200 mM; Kd values only in figure; PBM: imaging buffer (Na+ + K+ about 30 mM; composition and pH not in the material); EMSA: 1 nM DNA, 0-500 nM LacI (monomer), 1x imaging buffer with 20, 100 or …
[5] = system: LacI-Halo WT (Escherichia coli); assay: EMSA; settings: NaCl titration; Methods list 20, 100, 200 mM; Kd values only in figure; PBM: imaging buffer (Na+ + K+ about 30 mM; composition and pH not in the material); EMSA: 1 nM DNA, 0-500 nM LacI (monomer), 1x imaging buffer with 20, 100 or …

**Q.** Which results are given for O1 operator (PBM)?
**A.** binding signal (KD/WT-KD(Osym)) ([1]; relative ka 0.35, kd 22.79 ± 0.89 e-4 s-1): 28.4; binding signal (KD/WT-KD(Osym)) ([2]; relative ka 0.72, kd 3.80 ± 0.06 e-4 s-1): 2.6; binding signal (KD/WT-KD(Osym)) ([3]; relative ka 0.66, kd 8.84 ± 0.12 e-4 s-1): 6.1

**Q.** O2 operator (PBM) was tested. Which binding signal (KD/WT-KD(Osym)) ([1]; relative ka 0.12, kd 36.53 ± 3.80 e-4 s-1) did it give?
**A.** 140

**Q.** And the binding signal (KD/WT-KD(Osym)) ([2]; relative ka 0.58, kd 4.84 ± 0.10 e-4 s-1)?
**A.** 4.1

**Q.** And the binding signal (KD/WT-KD(Osym)) ([3]; relative ka 0.42, kd 13.25 ± 0.35 e-4 s-1)?
**A.** 14.1

**Q.** What does the source list for Osym 60 bp EMSA probe?
**A.** binding signal (fold KD increase, 50 to 200 mM NaCl) [4]: 2; binding signal (fold KD increase, 50 to 200 mM NaCl) [5]: 10

**Q.** How did the binding signal (KD/WT-KD(Osym)) ([1]; relative ka 0.89, kd 7.39 ± 0.13 e-4 s-1) turn out when Osym operator (PBM) was run?
**A.** 3.6

**Q.** And the binding signal (KD/WT-KD(Osym)) ([2]; relative ka 1.03, kd 0.89 ± 0.02 e-4 s-1)?
**A.** 0.4

**Q.** What about the binding signal (KD/WT-KD(Osym)) ([3]; reference, kd 2.14 ± 0.03 e-4 s-1) of the same substance?
**A.** 1
